17 sequences from the DeepSol protein solubility set can be followed below.

The nature of this data set: soluble on expression in E. coli; label from the status in PepcDB or PDB records.
Take “EYLDGFEAFTDQYKIKFQEFLDRFGIYYQPSTNKNAELFKVADSDIPSAEVKAYYVKEEWYFTPTNSDVDIKIQAICPIMTGQDEFGEVRNQPLFWIPYENIRPYIARERVMLSSLNNTRNSTIDDFFRLNLYKGDIVKTENLHNRALAEYCPTPDSMKMESKRIDKELQGFRDGLFVTQDTTWMKQAETKKSKGKKLEKARGKNITSRTRGQGEGAAETEAVEPKKQKASKNKAATRSVRRRK”: the “soluble on expression in E. coli” value is reported as “not soluble”.

Consider “MNAQRVVVMGLGNLLWADEGFGIRVAERLYARYHWPEEVEIVDGGTQGLNLLGYVEQASHLLLLDAIDYGLAPGSLRTYAGEKIPAYLSAKKMSLHQNSFSEVLALADIRGHLPCHIALVGLQPALLDDYGGSLSEIARSQLPAAEQAALAQLAAWGIVPQANEVARCLNYKCLSMENYEGVRIRQYQTRLEGKRSGE”, for which the “soluble on expression in E. coli” value was “not soluble”. Regarding “QEQQQELAQLEMARSALDSLSELICLQDCQGNLLTTNRAFDQFWEGRREEAITATASRVATRKSERKWTTDTQGRSCLLEVNLSSLVSPSGELLGTLSISHDVT”, the “soluble on expression in E. coli” value is given as “not soluble”. The entry for “TKDFIWNLSFNGTHYSNKILNLPEDKRENGIIHGTASLFRLMEGGSIYDLYTYEYAGVNPETGAAQWYMDEKDANGKVTGRTVTEDYTQASKYELGSTLPDFQGGFSTDFAYKGIDLSIATNFQIGGKIYDSMYSSFMHAGSNIGSNWHKDILNAWTPENKNTNVPIMDGAQNSNSQSSRFLINASFFNIRNISLGYTFPKEWMKAISASSARIYVSADNVALFSKRKGMDPRQYAYGYSAANYSAIRTLSFGINLNF” is “not soluble”; for “GPGSMAHLFFTGACAAAAALPISDREEVSPVWSIYDDYCCGASQHAEVDDPQVEGEGVGNCGGTTPPRLPFISGPVSSMTLKGAQLKKEAPIRRGAQGAVYSALDVATSAPAEDEKAKGLFSPEACRGHEGEAQVADGGQRPARRGRRVAVKRIFIQASDFGARDISATVLREVTLHRFVSEKQAACLAAAGAFYPTGSTSDATALAEADQGQTLCNLIDDSARVIHLYRVVEAPHKEMCLVMELAATNLEQVVFPHGARGASRGDGAGGYKRKPGVVSLFGSSASIGVGGGLGLSSASPSTAPDAATAEVGPQASSPSPPPSRMPLVRYVMRRLLRLVCFLHETCCVVHRDLKLSNVLVSKDAGLRLGDFGSARFIPPLRSATKTGVENSPSVPEPPAAPAGQREHLLCTPPSIRTTLHYRPPEALLGDQVCRTAADVWALGVIFAQLLLQKGLFHSESELDLLGAIQKLLGMPTYSAPPSWLAAPSVPGPPRERESAAHVPAPQASLPYKFHTGVVPADGLDLLSRMLHQQPECRVTAREALQHPFLNLEGLSAAATHDDDERGRVLWEERVATVLREQATGHIYGMGGGERRPMLISLADNEDEEDQEDDEVGVAPFCVNLGGCTSY” it is “not soluble”; for “GSITQPTAINVIFPDPALANAIKIAAGKSNVTDTVTQADLDGITTLSAFGTGVTTIEGVQYLNNLIGLELKDNQITDLAPLKNLTKITELELSGNPLKNVSAIAGLQSIKTLDLTSTQITDVTPLAGLSNLQVLYLDLNQITNISPLAGLTNLQYLSIGNAQVSDLTPLANLSKLTTLKADDNKISDISPLASLPNLIEVHLKNNQISDVSPLANTSNLFIVTLTNQTITNQPVFYNNNLVVPNVVKGPSGAPIAPATISDNGTYASPNLTWNLTSFINNVSYTFNQSVTFKNTTVPFSGTVTQPLTE” it is “soluble”.

In the case of “MDINQNYREAVKTIKEAILRSQYRAATSVNKEQLSLYYGIGRYVSKNSRIGFWGKGAIEQISSLLQKELPGLRGFSTSNIKNMRVFYEEWEPVLNRQPLAGDLVLDEKLLLSVIRQPLADEFNWSDFFSIGFSHHTEIISKAKTLEARLFYIHECAIRYWSKYTLRDYLKADLYSHRGTLPNNFAQTLPDTKQALKAVCSFKDEYLLDFINVEELDEQEEDLDEKIVEKSIVANVKKFIMTFGQDFSFIGNQYRVEVAGEEMFIDLLFFNRELNSLVAVELKSGKFRSSYLGQLNTYLSALDSYVRKPHENPSIGIILCREMNQTFVEFAVRDYNKPMGVATYRTSKDMPERLRNALPDIEELRKLL”, the “soluble on expression in E. coli” value is on record as “not soluble”.

Turning to “MTEIRVHQGDLPNLDNYRIDAVAVDTETLGLQPHRDRLCVVQLSSGDGTADVIQIAKGQKSAPNLVRLLSDRDITKIFHFGRFDLAILAHTFGVMPDVVFCTKIASKLTRTYTDRHGLKEICGELLNVNISKQQQSSDWAAETLSRAQIEYAASDVLYLHRLKDIFEERLKREERESVAKACFQFLPMRANLDLLGWSEIDIFAHS”, the “soluble on expression in E. coli” value is recorded as “not soluble”. Next, “DTTGSTPAPIDENGTVLALLPEFEHNPNAMFVLWKDHTSVAKADRINELAHSGKFTDYTRYVGGVYSSEWFWAKAAWVSEQDEQVAKRAFSWVELCDWIPAILADTQHPQKLRRGICAAGHKAMWHESWGGLPEQAFLSAISPTLDGIRDRMFTEVFTSDQAAGYLSKAWAIKLGLPEGIAIAIGEFDCHMGAVGAGAGANDLVKVIGTSTCDILMVESQNVGDRTIHGICGQVEGSAMPELLALEAGQSAFGDMYAWFKNVLMWPLQAYAEHNPDFALTAEEIASELLPMLSQAAEQQGIDQYTPVAMDWLNGRRTPYANQRLKGAICDLNLGSSSPAIFSALVESTAHGAKAIVDCFIEQDVTVERVIAIGGIAQKSPYVMQMCADVIGRDIIVVESDQ”: “not soluble”; “MGSDKIHHHHHHMRRTYLTLSEEDKDYLKTLSKKRTIQAQIVDRAKILLYKSDGMTFNAIAEKLAISSATVRLCVSKYYEGGIEKALFDTQRPGRPSEITDDAKAWIINLACQRPVELGYAQELWTLNALHKHIQKHAEEAGYPRLTTITKPYIQKFLKEQDIKPFKIRYYCEKRDQDFESKMHEVLLVYKQIEMQFDENGTLIVPDDYKLTITVSYDEKPGIQAISNTAPDLRPTTENGEVYRDAEYKRLGTLSLLAGIDLLTGEAIPLVSETHKSSDFIEFLKIRDKKYPLQDTIRIILDNHSAHTSKETQRFLDTMPKGRFKFVFTPKHGSWLNMIESFFSKMTKQMLRGIRVKTKQELEERIYQYFEEVNREPVVYHWKYKMDEIEKKKCCTELWMPFSAH”: “not soluble”. On to “MSVIYQTTITRIGQSAKEALGEQMLITFREGAPADIEEFCFIHCHGELTGALQPGARCELGQHCYPVTAVGSVAEQNLRELGHITLRFDGLREAEFPGTVHVAGPVPDDIAPGCILTFVA”, for which the “soluble on expression in E. coli” value was “not soluble”.

Consider “MGYTKAEILKALKGENVKFLRLQITDILGVVKNVEVPESQFEKALDGEIMFDGSSIEGFTRIEESDMLLRPDYNTFVILPDLVEDPKRGRVARLICDVYYPDGRPFEGDPRYVLKRQIERLKKLGFDNLYAGPEPEFFLFLRTPEGLPTTETHDRAGYFDLAPIDKGEEARRDMVNALVAMGFEIEAAHHEVAPGQHEIDFKYADALTTADNIATFKWVVKRIALNHGLHATFLPKPIRGINGSGMHTHLSLFKDGENAFYDPNAEYQLSQTALHFIAGLLEHAAGMVAVTNPLVNSYKRLTPGYEAPTNIAWSASNRSAMIRIPARRGVGTRAELRMPDPSCNPYLALAVMAAAGADGIERKLLPPPPIQRNIYQMTVRERRKHKIRELPGTLREALEALRKDPVIREALGEHVYTHFLQAKQMEWDDYRVTVHQWELDRYLATY”, for which the “soluble on expression in E. coli” value is recorded as “soluble”.

As to “MLLSSCQSLFSPAYQSTLRPSDNPQTVEQVQKNDPRAQMGAREHPRIVASYGGEYRDAKTERLVARIAGALTAVSENPQQSYRITILNSPAINAFALPGGYLYVTRGLLALANDASEVAAVLSHEMGHVTANHGIERQRREEAEVIASRVVAEVLSSDLAGKQALARGKLRLAAFSRQQELQADVIGVRMLGEAGYDPYASPRFLDSMAAYARFSSADPENDQSLDFLSSHPNTPQRIELARRHARAFGQEGQVGDRGRDWFLDGIDGLLYGDSPQEGYVRGQTFLHGTLGIRFDVPEGFVIDNKVEAVLATGPGDMAIRFDGVADPKQTSLANYLTSGWVAGLLPETVKETQINGLEAATARASADKWDFDVTVIRVGQQIFRFLTAVPKGNTQLDSIANVLRTSFRKMTPQEIASLKPLRVRVVTVKPGETVATMAARMMGTERKLDMFRMINAMSATATLQPGQRVKIISELEHHHHHH”, the “soluble on expression in E. coli” value is given as “not soluble”.

“MFLDMLSLIRGQKIKLNDALQGQSSFYIQIHYQAAFDLDIASFGLDSQYRLSDERYMTFYNQPETPCQAVRLIENQNKCSRFLVDLAKLPATIQHLVLTAAIDGQNIMSQLQQVTVQILNLQLQPIAELKLDASIFDQERATMLIEIYRKEGIWRLAAIGQGFNAGLAALIQHFGGEVAEEPTAQQTTPVAPQSNIDLKKKLSLQKAEKTGNASIIDLTKKSLVQLEKKKLLGVTARVALVLDASGSMDGQYRRGDVQKVVNRLMPLAIHFDDDGSFECWAFAAETTQLDDVTLSNVNDFINSTQRGWKNWQVGARYNEEIPAIEAVINYFQKFQDQIPTYVLFISDGGVGSRRQMQKILSQAAKLPIFWQFVGIGGRNYGALEKLDEMSGRIVDNCNFFSLDRIDGVSDERLYELLLQEFPDWLIAARQHQIVRNLEHHHHHH”: the “soluble on expression in E. coli” value is “not soluble”. The entry for “MGSDKIHHHHHHMKKIFKSIANSANCLADVLFPPHCLVCDSGLVLGETDVCSTCLSTLPTVNDDYSPDSLYLRLSIELRPSFVWAYLLFDSKNKTQKILHAIKYGDAPDIAVRLAMIWTDRIRESLVEADVDLIMPIPLHKSKLRKRGYNQATKIAEGIQKIVPIPIEESVLIRKRNLFIQAKSKRAKRFENVKQVYAIQHIEKVAGKHILLVDDVLTTGATLEACGLLLKNAGAAKVSVALLAMVAD” is “not soluble”; for “GSVVIVGRIILSGSGSITAYSQQTRGLLGCIITSLTGRDKNQVEGEVQVVSTATQSFLATCVNGVCWTVYHGAGSKTLAGPKGPITQMYTNVDQDLVGWQAPPGARSLTPCTCGSSDLYLVTRHADVIPVRRRGDSRGSLLSPRPVSYLKGSSGGPLLCPSGHAVGIFRAAVCTRGVAKAVDFVPVESMETTMRSPVFTDNSSPPAVPQSFQVAHLHAPTGSGKSTKVPAAYAAQGYKVLVLNPSVAATLGFGAYMSKAHGIDPNIRTGVRTITTGAPVTYSTYGKFLADGGCSGGAYDIIICDECHSTDSTTILGIGTVLDQAETAGARLVVLATATPPGSVTVPHPNIEEVALSNTGEIPFYGKAIPIEAIRGGRHLIFCHSKKKCDELAAKLSGLGINAVAYYRGLDVSVIPTIGDVVVVATDALMTGYTGDFDSVIDCNTCVTQTVDFSLDPTFTIETTTVPQDAVSRSQRRGRTGRGRRGIYRFVTPGERPSGMFDSSVLCECYDAGCAWYELTPAETSVRLRAYLNTPGLPVCQDHLEFWESVFTGLTHIDAHFLSQTKQAGDNFPYLVAYQATVCARAQAPPPSWDQMWKCLIRLKPTLHGPTPLLYRLGAVQNEVTLTHPITKYIMACMSADLEVVT” it is “soluble”; for “MGSDKIHHHHHHMKFPRKGIPQEEVMRELEKYTSKDLSFSSGKILGSMCTLPHELAKEVFCMYMDRNLGDPGLHPGTKKIEEEVIEMLSDLLHLERGYGHIVSGGTEANILAVRAFRNLADVENPELILPKSAHFSFIKAGEMLGVKLIWADLNPDYTVDVKDVEAKISENTIGIVGIAGTTGLGVVDDIPALSDLARDYGIPLHVDAAFGGFVIPFAKELGYDLPDFDFKLKGVQSITIDPHKMGMAPIPAGGIVFRHKKYLRAISVLAPYLAGGKIWQATITGTRPGASVLAVWALIKHLGFEGYMEIVDRAMKLSRWFAEEIKKTPGAWLVREPMLNIVSFKTKNLRRVERELKSRGWGISAHRGYIRIVSHASCDGGHD” it is “not soluble”.
